Publication PMC9563779 (Cancers, 2022)

What was measured:
[1] = molecular target: T1, N-terminally truncated 20 mer without methionine-611 (612-622) (Homo sapiens); assay: peptide or protein array; peptides immobilised on a cellulose membrane (PepSpots); Oslo-2 mAb 5 μg/mL in 5% nonfat skim milk, three hours at RT; HRP-conjugated secondary antibody, chemiluminescence; conditions: both partners purified
T1 construct: source: synthetic peptide, immobilised on a cellulose membrane (PepSpots, JPT Peptide Technologies)
T1 chain: PIWKFPDEEGA

[2] = molecular target: T2, 20 mer epitope peptide GVKPDLSYMPIWKFPDEEGA (region 603-622 in HER2) (Homo sapiens); assay: as above; conditions: both partners purified
T2 construct: region 603-622 in HER2, spanning the N terminus of the p95HER2 extracellular domain; source: synthetic peptide, immobilised on a cellulose membrane (PepSpots, JPT Peptide Technologies)
T2 chain: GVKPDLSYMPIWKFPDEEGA

[3] = molecular target: T3, peptide 1 of the overlapping 15mer peptides covering the p95HER2 extracellular domain (Homo sapiens, UniProt P04626); assay: as above; conditions: both partners purified
T3 construct: first 15mer of the p95HER2 extracellular domain, containing MPIW; source: synthetic peptide, immobilised on a cellulose membrane (PepSpots, JPT Peptide Technologies)
T3 chain: MPIWKFPDEEGACQP

[4] = molecular target: T4, N-terminally truncated 20 mer without isoleucine-613 (614-622) (Homo sapiens); assay: as above; conditions: both partners purified
T4 construct: source: synthetic peptide, immobilised on a cellulose membrane (PepSpots, JPT Peptide Technologies)
T4 chain: WKFPDEEGA

[5] = molecular target: T5, N-terminally truncated 20 mer without proline-612 (613-622) (Homo sapiens); assay: as above; conditions: both partners purified
T5 construct: source: synthetic peptide, immobilised on a cellulose membrane (PepSpots, JPT Peptide Technologies)
T5 chain: IWKFPDEEGA

[6] = molecular target: T6, full-length HER2 (endogenous) (Homo sapiens, UniProt P04626); assay: flow cytometry on cells; Oslo-2 mAb 10 μg/mL on cell lines, 30 min at 4 °C in FACS buffer (PBS pH 7, 2% FBS, 2 mM EDTA), labelled secondary antibody; conditions: one partner purified
T6 construct: human epidermal growth factor receptor 2 (HER2), full-length, on cells and in tissue sections; also called HER2 full-length; full-length HER2 receptor; source: endogenous, SK-BR-3 and A549 cells; endogenous, human breast carcinoma biopsy and normal human tissues

[7] = molecular target: T7, 611-CTF-p95HER2 (611-carboxy terminal fragment of HER2) on p95HER2-T47D cells (Homo sapiens, UniProt P04626); assay: as above; conditions: one partner purified
T7 construct: source: p95HER2-T47D cells (C2069, Crown Bioscience); cultured cells and orthotopic xenograft tumours in NSG mice

[8] = molecular target: T8, full-length HER2 in transduced MDA-MB-468 cells (Homo sapiens, UniProt P04626); assay: as above; conditions: one partner purified
T8 construct: full-length HER2 expressed from the plasmid pBABEpuro-ERBB2; source: cultured cells and subcutaneous xenograft tumours

[9] = molecular target: T9, extracellular domain of p95HER2 peptide with a poly-histidine-tag in the C-terminus (Homo sapiens); assay: SPR; Oslo-2 mAb (5 μg/mL) covalently immobilised by amine coupling on a CM5 chip, anti-HER2 (cytopla-HER2) mAb on the reference flow cell; p95HER2 ECD peptide as analyte, 0.6 to 2500 nM; HBS-EP+ buffer; 25 °C; Biacore T200; global fit to the 1:1 bimolecular interaction model; conditions: both partners purified
T9 construct: printed with HHHHHH at the C-terminus; also called p95HER2 ECD peptide; source: synthetic peptide (GenScript); not shown: His6, C-terminal, kept

[10] = molecular target: T7, 611-CTF-p95HER2 (611-carboxy terminal …); assay: flow cytometry on cells; monoclonal hybridoma supernatant (1:50 dilution) on cell lines, 30 min at 4 °C in FACS buffer, goat anti-rat-PE; conditions: partners not purified

B1: Oslo-2 mAb (antibody, V domains shown)
VH: EVQILETGGGLVKPGGSLRLSCATSGFNFNDYFMNWVRQAPGKGLEWIAQIRNKNYNYATYFAESLEGRFTISRDDSKSSVYLQVNSLRAEDTALYYCTELRYDYWGQGVMVTVSS
VL: DIVMTQSPFSLAVSEGEMVTINCKSSQSLLSSGNQKNNLAWYQQKPGQSPKLLIYYASTRQSGVPDRFIGSGSGTDFTLTISDVQAEDLADYYCLQHYSSPYTFGAGTKLELK
notes: variable heavy domain; variable light domain; On the peptide membrane Oslo-2 was detected with a horse anti-mouse secondary antibody, so the constant regions may be mouse (surmise); also called Oslo-2 Ab; Oslo-2 (p95HER2) antibody
[1]
  binding result: binds
[2]
  binding result: binds
[3]
  binding result: binds
[4]
  binding result: binds
[5]
  binding result: binds
[6]
  binding result: no binding (tested: 10 μg/mL)
[7]
  binding result: binds
[8]
  binding result: no binding (tested: 10 μg/mL)
[9]
  Kd: 2 nM

B2: mClone 1 (monoclonal hybridoma culture supernatant) (antibody, V domains shown)
VH: B1 VH
VL: B1 VL
notes: constant region of the rat hybridoma antibody; source: rat hybridoma (B-cells fused with Ag8 myeloma cells), sub-cloned by limited dilution, culture supernatant
[10]
  binding result: binds
